The test deals with proteasomal core particle (WT) (yeast (endogenous)) (UniProt P21243). The experiment in a line: stimulation of CP peptidase activity (suc-LLVY-AMC) by titrated base; base titrated against 2 nM CP, preincubated 15 min at 30 °C; 5 μM suc-LLVY-AMC; initial rates fitted to a hyperbola (Michaelis–Menten); surrogate readout for base–CP interaction.

Turning to “base subcomplex purified from nas6Δ cells (WT Rpt3), P38764 1-993; P32565 1-945; O13563 1-156; P33299 1-467; P40327 1-437; P33298 1-428; P53549 1-437; P33297 1-434; Q01939 1-405”, the Kd is 36 nM.

“base subcomplex purified from nas6Δ rpt3-Δ3 cells, P38764 1-993; P32565 1-945; O13563 1-156; P33299 1-467; P40327 1-437; P33298 1-428; P53549 1-437; P33297 1-434; Q01939 1-405” returned a Kd of 145 nM.

(Values after PMC9943895.)
